Where two headings read alike, the source gives them in different places.
B8: human IL-12p40, the p40 subunit of IL-23 (natural protein, UniProt P29460 23-328, looked up)
chain: IWELKKDVYVVELDWYPDAPGEMVVLTCDTPEEDGITWTLDQSSEVLGSGKTLTIQVKEFGDAGQYTCHKGGEVLSHSLLLLHKKEDGIWSTDILKDQKEPKNKTFLRCEAKNYSGRFTCWWLTTISTDLTFSVKSSRGSSDPQGVTCGAATLSAERVRGDNKEYEYSVECQEDSACPAAEESLPIEVMVDAVHKLKYENYTSSFFIRDIIKPDPPKNLQLKPLKNSRQVEVSWEYPDTWSTPHSYFSLTFCVQVQGKSKREKKDRVFTDKTSATVICRKNASISVRAQDRYYSSSWSEWASVPCS

Experiments:
[1] = biological target: T1, human IL-12p40, the p40 subunit of IL-23 (human, UniProt P29460); assay: crystal structure
[2] = biological target: T2, human interleukin-23 (IL-23), heterodimer of IL-23p19 and IL-12p40 (human, UniProt Q9NPF7;P29460); assay: crystal structure
[3] = biological target: T2, human interleukin-23 (IL-23), …; assay: cross-linking
[4] = biological target: T1, human IL-12p40, the p40 subunit of IL-23; assay: crystal structure; remark: listed apart in the source
[5] = biological target: T2, human interleukin-23 (IL-23), …; assay: crystal structure; remark: listed apart in the source
[6] = biological target: T3, human IL-23 receptor ectodomain (IL-23R, full ECD, residues 1-317) (human, UniProt Q5VWK5-1 24-317); assay: SEC-MALLS
T3 sequence (looked up): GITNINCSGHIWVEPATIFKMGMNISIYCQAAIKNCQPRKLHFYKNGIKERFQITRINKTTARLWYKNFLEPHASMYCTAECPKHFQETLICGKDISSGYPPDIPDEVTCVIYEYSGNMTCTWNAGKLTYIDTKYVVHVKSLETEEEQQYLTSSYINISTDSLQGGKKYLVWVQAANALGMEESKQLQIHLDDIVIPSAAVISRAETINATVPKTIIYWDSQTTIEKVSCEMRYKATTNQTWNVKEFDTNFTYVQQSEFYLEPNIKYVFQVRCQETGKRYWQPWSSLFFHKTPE

[7] = biological target: T4, human IL-12 receptor subunit beta-1 ectodomain (IL-12Rβ1, full ECD) (human, UniProt P42701-1 24-544); assay: ITC
[8] = biological target: T3, human IL-23 receptor ectodomain …; assay: crystal structure
[9] = biological target: B8; assay: crystal structure
[10] = biological target: T4, human IL-12 receptor subunit beta-1 …; assay: cross-linking

B1: Nanobody 22E11 (single domain VHH camelid antibody against human IL-23) (VHH)
VHH: EVQLVESGGGLVQAGGSLRLSCAASGRTFSWSAVGWFRQAPGKEREFVAAIRWSGGSPYYADSVKDRFTISRDNAKNTVYLQMNSLRPEDTAVYLCGETSLFPTSRGSHYDTWGQGTQVTVSS
binding result [1]: binds | binding result [2]: binds

B2: Nanobody 37D5 (single domain VHH camelid antibody against human IL-23) (VHH)
VHH: EVQLVESGGGLVQPGGSLRLSCAASGFTLDYLAIGWFRQAPGKEREGVSCVSSSGQYTYYADSVKGRFTISRDNAESTVYLQMNSLKPEDTAVYYCATDPECYRVRGYYNGEYDYWGQGTQVTVSS
binding result [3]: binds

B3: Fab fragment of briakinumab (ABT-874) (Fab, V domains shown)
VH: QVQLVESGGGVVQPGRSLRLSCAASGFTFSSYGMHWVRQAPGKGLEWVAFIRYDGSNKYYADSVKGRFTISRDNSKNTLYLQMNSLRAEDTAVYYCKTHGSHDNWGQGTMVTVSS
VL: QSVLTQPPSVSGAPGQRVTISCSGSRSNIGSNTVKWYQQLPGTAPKLLIYYNDQRPSGVPDRFSGSKSGTSASLAITGLQAEDEADYYCQSYDRYTHPALLFGTGTKVTVL
binding result [4]: binds | binding result [5]: binds

B4: Nanobody 124C4 (single domain VHH camelid antibody against human IL-23) (VHH)
VHH: EVQLVESGGGLVQPGGSLRLSCAASGFTLDDYAIAWFRQAPGKEREGVSGIDSGDGSAYYADSVKGRFTISSDNAKNTVYLQMNSLRPEDTAVYYCARVRTGWGLNAPDYAMDYWGKGTLVTVSS
binding result [3]: binds

B5: human interleukin-23 (IL-23), heterodimer of IL-23p19 and IL-12p40 (complex)
chain 1: RAVPGGSSPAWTQCQQLSQKLCTLAWSAHPLVGHMDLREEGDEETTNDVPHIQCGDGCDPQGLRDNSQFCLQRIHQGLIFYEKLLGSDIFTGEPSLLPDSPVGQLHASLLGLSQLLQPEGHHWETQQIPSLSPSQPWQRLLLRFKILRSLQAFVAVAARVFAHGAATLSP
chain 2: IWELKKDVYVVELDWYPDAPGEMVVLTCDTPEEDGITWTLDQSSEVLGSGKTLTIQVKEFGDAGQYTCHKGGEVLSHSLLLLHKKEDGIWSTDILKDQKEPKNKTFLRCEAKNYSGRFTCWWLTTISTDLTFSVKSSRGSSDPQGVTCGAATLSAERVRGDNKEYEYSVECQEDSACPAAEESLPIEVMVDAVHKLKYENYTSSFFIRDIIKPDPPKNLQLKPLKNSRQVEVSWEYPDTWSTPHSYFSLTFCVQVQGKSKREKKDRVFTDKTSATVICRKNASISVRAQDRYYSSSWSEWASVPCS
stoichiometry N [6]: 1 | Kd [7]: 2000 nM

B6: preformed human IL-23:IL-23R binary complex (complex)
chain 1: RAVPGGSSPAWTQCQQLSQKLCTLAWSAHPLVGHMDLREEGDEETTNDVPHIQCGDGCDPQGLRDNSQFCLQRIHQGLIFYEKLLGSDIFTGEPSLLPDSPVGQLHASLLGLSQLLQPEGHHWETQQIPSLSPSQPWQRLLLRFKILRSLQAFVAVAARVFAHGAATLSP
chain 2: IWELKKDVYVVELDWYPDAPGEMVVLTCDTPEEDGITWTLDQSSEVLGSGKTLTIQVKEFGDAGQYTCHKGGEVLSHSLLLLHKKEDGIWSTDILKDQKEPKNKTFLRCEAKNYSGRFTCWWLTTISTDLTFSVKSSRGSSDPQGVTCGAATLSAERVRGDNKEYEYSVECQEDSACPAAEESLPIEVMVDAVHKLKYENYTSSFFIRDIIKPDPPKNLQLKPLKNSRQVEVSWEYPDTWSTPHSYFSLTFCVQVQGKSKREKKDRVFTDKTSATVICRKNASISVRAQDRYYSSSWSEWASVPCS
chain 3: GITNINCSGHIWVEPATIFKMGMNISIYCQAAIKNCQPRKLHFYKNGIKERFQITRINKTTARLWYKNFLEPHASMYCTAECPKHFQETLICGKDISSGYPPDIPDEVTCVIYEYSGNMTCTWNAGKLTYIDTKYVVHVKSLETEEEQQYLTSSYINISTDSLQGGKKYLVWVQAANALGMEESKQLQIHLDDIVIPSAAVISRAETINATVPKTIIYWDSQTTIEKVSCEMRYKATTNQTWNVKEFDTNFTYVQQSEFYLEPNIKYVFQVRCQETGKRYWQPWSSLFFHKTPE
Kd [7]: 25 nM

B7: human IL-23p19, the helical subunit of IL-23 (natural protein, UniProt Q9NPF7 20-189, looked up)
chain: RAVPGGSSPAWTQCQQLSQKLCTLAWSAHPLVGHMDLREEGDEETTNDVPHIQCGDGCDPQGLRDNSQFCLQRIHQGLIFYEKLLGSDIFTGEPSLLPDSPVGQLHASLLGLSQLLQPEGHHWETQQIPSLSPSQPWQRLLLRFKILRSLQAFVAVAARVFAHGAATLSP
binding result [8]: binds | binding result [9]: binds

B8
binding result [10]: binds

B9: Fab fragment of ustekinumab (Fab, V domains shown)
VH: EVQLVQSGAEVKKPGESLKISCKGSGYSFTTYWLGWVRQMPGKGLDWIGIMSPVDSDIRYSPSFQGQVTMSVDKSITTAYLQWNSLKASDTAMYYCARRRPGQGYFDFWGQGTLVTVSS
VL: DIQMTQSPSSLSASVGDRVTITCRASQGISSWLAWYQQKPEKAPKSLIYAASSLQSGVPSRFSGSGSGTDFTLTISSLQPEDFATYYCQQYNIYPYTFGQGTKLEIK
binding result [3]: binds
